Laboratory results from paper PMC4066811.

Legend:
[1] = molecular target: GST-syntaxin 3B (cytoplasmic domain without the transmembrane domain, residues 2-264), wild type (mouse); test: pull-down
[2] = molecular target: GST-syntaxin 3B T14E (phosphomimetic mutant, without the transmembrane domain) (mouse); test: pull-down

amount of bound SNAP-25, normalized to wild type [1]: 100%
amount of bound SNAP-25, normalized to wild type [2]: 180%
Substance: His6-SNAP-25b (recombinant) (from UniProt P60879-1 1-206) (natural protein)
